In patent US20060183887A1 (Amgen, published 2006):
Changes are numbered by the printed parent chain.

Experiments:
[1] = biological target: T1, soluble EGF-r purified from A431 cell membranes (Sigma, E-3641) (human, UniProt P00533 25-1210, limits assumed); assay: BIAcore, solid phase, antigen immobilized at 228 RU
T1 construct: The BIAcore methods say that either this protein or the recombinant extracellular domain of EGFr was immobilized; also called purified A431 cell membrane-derived EGFr protein
Protocol: Determination of affinity constants of fully human Mabs by BIAcore: Affinity measurement of purified human monoclonal antibodies, Fab fragments, or hybridoma supernatants by plasmon resonance was carried out using the BIAcore 2000 instrument, using general procedures outlined by the manufacturers.
Based upon the general procedures outlined by the manufacture, kinetic analyses of the antibodies were performed using antigens immobilized onto the sensor surface at a low density. […] The dissociation (kd or koff) and association (ka or kₒₙ) rates were determined using the software provided by the manufacturer (BIA evaluation 2.1).

[2] = biological target: T2, human epidermal growth factor receptor (EGF-r) on the surface of human carcinoma cells (A431, SW948, … (human, UniProt P00533 25-1210)); assay: inhibition of 125I-EGF binding to A431 cells (FIG. 36)
T2 construct: whole, on cells; also called surface expressed EGF-r

[3] = biological target: T1, soluble EGF-r purified from A431 cell …; assay: in solution by ELISA, Scatchard analysis
Protocol: After incubation, 70 μl of each mixture was transferred into the wells of 96-well microtiter plates previously coated with the same monoclonal antibody (100 μl/well, at 2 μg/ml in coating buffer) and incubated for 15 min at room temperature.

[4] = biological target: T1, soluble EGF-r purified from A431 cell …; assay: BIAcore, solid phase, antigen immobilized at 818 RU
[5] = biological target: T1, soluble EGF-r purified from A431 cell …; assay: solid phase (BIAcore) and solution measurements
[6] = biological target: T2, human epidermal growth factor receptor …; assay: inhibition of [125I]EGF binding to SW948 cells
[7] = biological target: T2, human epidermal growth factor receptor …; assay: inhibition of [125I]EGF (0.1 nM) binding to A431 cells
Description: The plates were washed five times, air-dried and counted in a scintillation counter.

B1: antibody secreted by the hybridoma E2.11 (antibody, human IgG2, V domains shown)
VH: VSGGSVSSGDYYWSWIRQPPGKGLEWIGHLYYSGNTNYNPSLKSRVTISLDTSKNQFSLKLSSVTAADTAVYYCARDFLTGSFFDYWGQGTLVTVSS
VL: TITCQASQDISNYLNWYQQKPGKAPKLLINDASDLETGVPSRISGSGSGTDFTFTISNLQPEDIATYYCQQYDSLPLTFGGGTKVEIRR
notes: Fully human IgG2 with a kappa light chain
Q: With B1 as the binder, how does the Kd [1] read?
A: 0.16 nM

Q: And the koff [1]?
A: 0.0003 s⁻¹

Q: And the kon [1]?
A: 1.9e+06 M⁻¹ s⁻¹

Q: And the “concentration at which inhibition of EGF binding begins” value [2]?
A: ~8 nM

Q: What about the Kd [3] of the same binder?
A: 0.11 nM

B2: antibody secreted by the hybridoma E1.1 (antibody, human IgG2, V domains shown)
VH: VSGGSINSGDYYWSWIRQHPGKGLDCIGYIYYSGSTYYNPSLKSRVTISVDTSKNQFFLKLTSVTAADTAVYYCARSTVVNPGWFDPWGQGTLVTVSS
VL: B1 VL with S11N, Y17F, L27V, N30H, D34N, V39G, I43F, N58G, D73E, R88K
notes: as for B1
Q: B2 was tested. Which “concentration at which inhibition of EGF binding begins” value [2] did it give?
A: ~8 nM

Q: What about the Kd [3] of the same binder?
A: 0.11 nM

B3: antibody secreted by the hybridoma E2.4 (antibody, human IgG2, V domains shown)
VH: VSGGSINSGDYYWSWIRQHPGKGLEWIGSIYYSGNTFYNPSLKSRVTISLDTSKNQFSLKLSSVTAADTAVCYCARNIVTTGAFDIWGQGTMVTVSS
VL: B1 VL with S11T, N12I, D34S, S41L, I43F, N58S, S74H, E86A, R88K
notes: as for B1
Q: Which results are given for B3?
A: concentration at which inhibition of EGF binding begins [2]: ~8 nM; Kd [4]: 0.035 nM; koff [4]: 9.78e-05 s⁻¹; kon [4]: 2.8e+06 M⁻¹ s⁻¹; Kd [3]: 0.11 nM

B4: antibody secreted by the hybridoma E7.6.3 (antibody, human IgG2, V domains shown)
VH: VSGGSVSSGDYYWTWIRQSPGKGLEWIGHIYYSGNTNYNPSLKSRLTISIDTSKTQFSLKLSSVTAADTAIYYCVRDRVTGAFDIWGQGTMVTSS
VL: B1 VL with N30Y, D34N, I43F, N58S, Y68F, Q71H, Y72F, S74H, T78A, R88K
notes: Fully human IgG2 with a kappa light chain; also called E7.6.3 MAb
Q: With B4 as the binder, how does the Kd [5] read?
A: 0.05 nM

Q: What about the IC50 [6] of the same binder?
A: 0.9 nM

Q: And the IC50 [7]?
A: 3 nM
